# Results as given in US20230357429A1 (JANUX THERAPEUTICS, published 2023).
# Where no end group is shown, it is not given here.
# T1: Peptide-22 (cysteine pairing not given here; also: biotinylated (site not given here))
# T1 peptide: VDFCTIYKWPVCEG
# T2: Peptide-19 (cysteine pairing not given here; also: biotinylated (site not given here))
# T2 peptide: PDFCQLYNWPVCAG
# T3: Peptide-24 (cysteine pairing not given here; also: biotinylated (site not given here))
# T3 peptide: SVLFCVKNLYCWVT
# T4: Peptide-21 (cysteine pairing not given here; also: biotinylated (site not given here))
# T4 peptide: IDFCSLYQWPVCGT
# T5: Peptide-16 (cysteine pairing not given here; also: biotinylated (site not given here))
# T5 peptide: IDFCLLYDWPVCAS
# T6: Peptide-15 (cysteine pairing not given here; also: biotinylated (site not given here))
# T6 peptide: LDFCKLYQWPVCFT
# T7: Peptide-11 (cysteine pairing not given here; also: biotinylated (site not given here))
# T7 peptide: VDFCALYNWPVCET
# T8: Peptide-30 (cysteine pairing not given here; also: biotinylated, site not given here)
# T8 peptide: TSLICFRNVYCWNV
# T9: Peptide-44 (cysteine pairing not given here; also: biotinylated, site not given here)
# T9 peptide: VEFCKQWTWFGCMT
# T10: Peptide-58 (cysteine pairing not given here; also: biotinylated, site not given here)
# T10 peptide: VEICKQWFYTVCLS
# T11: Peptide-25 (cysteine pairing not given here; also: biotinylated (site not given here))
# T11 peptide: VDFCKIYSWPVCHQ
# Legend:
# Peptide-22 = biological target: T1, Peptide-22; experiment: ELISA: biotinylated peptide captured on neutravidin plate, Fab titrated, HRP secondary antibody
# Protocol: (§1) Binding was measured in a standard ELISA format. […] Bound TBDs were detected using a standard horse radish peroxidase conjugate secondary antibody. The ELISA signal was plotted versus the log-scale concentration of TBD. The concentrations of TBD required to observe half maximal binding signal (EC₅₀s) were calculated using Graphpad Prism software.
# Peptide-19 = biological target: T2, Peptide-19; experiment: as above
# Protocol: as §1
# Peptide-24 = biological target: T3, Peptide-24; experiment: as above
# Protocol: as §1
# Peptide-21 = biological target: T4, Peptide-21; experiment: as above
# Protocol: as §1
# Peptide-16 = biological target: T5, Peptide-16; experiment: as above
# Protocol: as §1
# Peptide-15 = biological target: T6, Peptide-15; experiment: as above
# Protocol: as §1
# Peptide-11 = biological target: T7, Peptide-11; experiment: as above
# Protocol: as §1
# Peptide-30 = biological target: T8, Peptide-30; experiment: ELISA, Fab on captured biotin-peptide
# Protocol: as §1
# Peptide-44 = biological target: T9, Peptide-44; experiment: ELISA, Fab on captured biotin-peptide
# Protocol: as §1
# Peptide-58 = biological target: T10, Peptide-58; experiment: ELISA, Fab on captured biotin-peptide
# Protocol: as §1
# Peptide-25 [1] = biological target: T11, Peptide-25; experiment: ELISA, Fab on captured biotin-peptide; Table 19 peptide set (separate ELISA run)
# Protocol: as §1
# Peptide-25 [2] = biological target: T11, Peptide-25; experiment: ELISA, Fab on captured biotin-peptide; Table 18 peptide set (separate ELISA run)
# Protocol: as §1
binding result (Peptide-22),binding result (Peptide-19),binding result (Peptide-24),binding result (Peptide-21),binding result (Peptide-16),binding result (Peptide-15),binding result (Peptide-11),EC50 (Peptide-30) [nM],EC50 (Peptide-44) [nM],EC50 (Peptide-58) [nM],EC50 (Peptide-25 [1]) [nM],EC50 (Peptide-25 [2]) [nM],Binder
binds,binds,binds,binds,binds,binds,binds,9.1,,,,,"TBD-1 wt (Fab, V domains shown, Fab; the heavy chain entry is VH-CH1; also called wild-type anti-TROP2 Fab (hRS7); TROP2 Fab) VH: QVQLQQSGSELKKPGASVKVSCKASGYTFTNYGMNWVKQAPGQGLKWMGWINTYTGEPTYTDDFKGRFAFSLDTSVSTAYLQISSLKADDTAVYFCARGGFGSSYWYFDVWGQGSLVTVSS VL: DIQLTQSPSSLSASVGDRVSITCKASQDVSIAVAWYQQKPGKAPKLLIYSASYRYTGVPDRFSGSGSGTDFTLTISSLQPEDFAVYYCQQHYITPLTFGAGTKVEIKR"
,,,,,,,,112,10.7,453,1000,"TBD-11 (HC R98A) (Fab, V domains shown, Fab; also called HC R98A mutant) VH: QVQLQQSGSELKKPGASVKVSCKASGYTFTNYGMNWVKQAPGQGLKWMGWINTYTGEPTYTDDFKGRFAFSLDTSVSTAYLQISSLKADDTAVYFCAAGGFGSSYWYFDVWGQGSLVTVSS VL: DIQLTQSPSSLSASVGDRVSITCKASQDVSIAVAWYQQKPGKAPKLLIYSASYRYTGVPDRFSGSGSGTDFTLTISSLQPEDFAVYYCQQHYITPLTFGAGTKVEIKR"
